Key:
His-tagged PaMurA = molecular target: T1, His-tagged PaMurA (P. aeruginosa, UniProt Q9HVW7 1-421); assay: […] (1:1), 25 mM Tris pH 8.0, 150 mM NaCl, 10% glycerol, 1 mM DTT, […]; settings: both partners purified
T1 construct: MurA of Pseudomonas aeruginosa PAO1; UniProt Q9HVW7 is printed for the covariation analysis; also called H–PaMurA; H–PaMurA(WT); source: purified (details in the Supplementary Information)

H–PaMurA(E406K) = molecular target: T2, H–PaMurA(E406K) (P. aeruginosa, UniProt Q9HVW7 1-421, E406K); assay: as above; settings: both partners purified
T2 construct: source: purified (details in the Supplementary Information)

B1: Flag-tagged PaLpxC (enzyme)
chain: MIKQRTLKNIIRATGVGLHSGEKVYLTLKPAPVDTGIVFCRTDLDPVVEIPARAENVGETTMSTTLVKGDVKVDTVEHLLSAMAGLGIDNAYVELSASEVPIMDGSAGPFVFLIQSAGLQEQEAAKKFIRIKREVSVEEGDKRAVFVPFDGFKVSFEIDFDHPVFRGRTQQASVDFSSTSFVKEVSRARTFGFMRDIEYLRSQNLALGGSVENAIVVDENRVLNEDGLRYEDEFVKHKILDAIGDLYLLGNSLIGEFRGFKSGHALNNQLLRTLIADKDAWEVVTFEDARTAPISYMRPAAAV
notes: LpxC of Pseudomonas aeruginosa PAO1; UniProt P47205 is printed for the covariation analysis; also called F–PaLpxC; F–LpxC; source: purified (details in the Supplementary Information)
B1: binds (His-tagged PaMurA); binds (H–PaMurA(E406K)).

— paper PMC9995270 (Nature, 2023)
